One may read the stoichiometry N as the number of molecules, sites or subunits per partner or assembly.

Results on one molecule are retold here after paper PMC5694663.

This experiment addresses JunB-6×His. Kind of experiment: co-purification.

B1: mCherry-BATF1 (natural protein)
chain: MPHSSDSSDSSFSRSPPPGKQDSSDDVRKVQRREKNRIAAQKSRQRQTQKADTLHLESEDLEKQNAALRKEIKQLTEELKYFTSVLSSHEPLCSVLASGTPSPPEVVYSAHAFHQPHISSPRFQP
B1 registered a stoichiometry N of 1.
